Source: article PMC11791991 (2024)
Ends that are not written are not given here.

Molecular target: T1, LZ-Y
T1 chain: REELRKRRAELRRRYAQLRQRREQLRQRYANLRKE
Experiment: QRET time-resolved luminescence

B1: EuLZ (leucine zipper peptide LZ, Eu-chelate labeled) (peptide)
chain: KDTLQAETDQLEDEKSALQTEIANLLKEKEKLEFIL
modifications: also: nonadentate Eu(III) chelate label, position not given here
- Kd: 21 nM
